From patent US20250042969A1, “ANTIGEN DISCOVERY FOR T CELL RECEPTORS ISOLATED FROM PATIENT TUMORS RECOGNIZING WILD-TYPE ANTIGENS AND POTENT PEPTIDE MIMOTOPES” (The Board of Trustees of the Leland Stanford Junior …, priority 2017, published 2025)

Key:
[1] = test system: peptide-HLA-A*02:01 yeast-display library; assay: Selection of the peptide-HLA-A*02:01 yeast-display library by multimerized TCR with deep sequencing; format: binding, human; details: for cross-reactivity (breadth of tolerated amino acids per peptide position): round 3, accounting for peptide enrichment
[2] = biological target: T1, MMDFFNAQM-HLA-A*02:01 (Homo sapiens, UniProt P04439+P26368, D140Y/D185E/D98H/E176V/E277Q/G131W/G231S/I119V/I121R/I166T/I218V/N151K/N90K/P208A/P217A/Q86G/Q94H/R138H/R169H); assay: Surface plasmon resonance of TCR binding to immobilized […]-HLA-A*02:01; details: BIAcore T100, 25° C., equilibrium data, 1:1 binding model
T1 construct: HLA-A*02:01 (1-275); BirA biotinylation site (implied by BirA biotinylation); made in house
Description: Inclusion bodies containing the separate proteins were dissolved in 8 M urea, 40 mM Tris-HCl pH 8.0, 10 mM EDTA, and 10 mM DTT. […] After 72 hours at 4° C., the protein was dialyzed in 10 L of 10 mM Tris-HCl and purified via weak ion exchange using a DEAE cellulose column. The protein elution was purified using size exclusion chromatography on a Superdex 200 column and ion-exchange chromatography on a 5/50 Mono Q column (GE Healthcare). Protein was biotinylated overnight with birA ligase, 100 μM biotin, 40 mM Bicine pH 8.3, 10 mM ATP, and 10 mM Magnesium Acetate at 4° C. after buffer-exchange to 1×HBS pH 7.2 in a 30 kDa filter (Millipore) before being run on a size exclusion Superdex 200 column.
A different flow cell was immobilized with non-relevant peptide-HLA-A2 to serve as blank control. […] Injections of TCR were stopped after 60 s to allow sufficient time for SPR signals to reach plateau. The dissociation constant (KD) was obtained by fitting equilibrium data with a 1:1 binding model using BIAcore evaluation software.

B1: TCR 2A: TIL TCR of Patient A, TRAV19/TRBV10-1; alpha chain SEQ ID NO: 258, beta chain SEQ ID NO: 259 (protein)
alpha: QKVTQAQTEISVVEKEDVTLDCVYETRDTTYYLFWYKQPPSGELVFLIRRNSFDEQNEISGRYSWNFQKSTSSFNFTITASQVVDSAVYFCALSEARGGATNKLIFGTGTLLAVQPNIQNPDPAVYQLRDSKSSDKSVCLFTDFDSQTNVSQSKDSDVYITDKCVLDMRSMDFKSNSAVAWSNKSDFACANAFNNSIIPEDTFFPSPESS
beta: EITQSPRHKITETGRQVTLACHQTWNHNNMFWYRQDLGHGLRLIHYSYGVQDTNKGEVSDGYSVSRSNTEDLPLTLESAASSQTSVYFCASSRDTVNTEAFFGQGTRLTVVEDLKNVFPPEVAVFEPSEAEISHTQKATLVCLATGFYPDHVELSWWVNGKEVHSGVCTDPQPLKEQPALNDSRYALSSRLRVSATFWQNPRNHFRCQVQFYGLSENDEWTQDRAKPVTQIVSAEAWGRAD
enrichment of peptides / HLA-linked epitope tag from the library ([1]; HLA-A*02:01 library): enriched peptides from the library
cross-reactivity (breadth of tolerated amino acids per peptide position) [1]: more cross-reactive

B2: TCR 3B: TIL TCR of Patient B, TRAV19/TRBV10-1; alpha chain SEQ ID NO: 258, beta chain SEQ ID NO: 260 (protein)
alpha: QKVTQAQTEISVVEKEDVTLDCVYETRDTTYYLFWYKQPPSGELVFLIRRNSFDEQNEISGRYSWNFQKSTSSFNFTITASQVVDSAVYFCALSEARGGATNKLIFGTGTLLAVQPNIQNPDPAVYQLRDSKSSDKSVCLFTDFDSQTNVSQSKDSDVYITDKCVLDMRSMDFKSNSAVAWSNKSDFACANAFNNSIIPEDTFFPSPESS
beta: EITQSPRHKITETGRQVTLACHQTWNHNNMFWYRQDLGHGLRLIHYSYGVQDTNKGEVSDGYSVSRSNTEDLPLTLESAASSQTSVYFCASSRDFVSNEQYFGPGTRLTVTEDLKNVFPPEVAVFEPSEAEISHTQKATLVCLATGFYPDHVELSWWVNGKEVHSGVCTDPQPLKEQPALNDSRYALSSRLRVSATFWQNPRNHFRCQVQFYGLSENDEWTQDRAKPVTQIVSAEAWGRAD
TCR tetramer staining of selected library yeast ([1]; 400 nM TCR tetramer, over rounds of selection): tetramer stained yeast gradually increased across the rounds of selection
enrichment of peptides / HLA-linked epitope tag from the library ([1]; HLA-A*02:01 library): enriched peptides from the library
unique peptides selected at round 3 ([1]; HLA-A*02:01 library, all four peptide lengths, deep sequencing): 66
cross-reactivity (breadth of tolerated amino acids per peptide position) [1]: relatively specific
affinity (dissociation constant, KD) [2]: could not be determined
